Assay results published in publication PMC7713142, “Crystal structure of the yeast heterodimeric ADAT2/3 deaminase”.

Columns and labels:
[1] = biological target: Saccharomyces cerevisiae ADAT3 (S. cerevisiae)
[2] = biological target: ScADAT2 (TAD2);ScADAT3 (TAD3) WT (Saccharomyces cerevisiae;Saccharomyces …, UniProt P47058;Q9URQ3 1-250;1-322, |); test: EMSA; 2 uM tRNA, varied enzyme:tRNA molar ratios; EMSA: 20 mM Tris-HCl pH 8.0, 1 mM DTT, 2 uM tRNA, on ice 60 min; 6% native PAGE, 40 mM Tris-HCl pH 9.0 running buffer; conditions: protein: recombinant;recombinant; tags: none (untagged in co-expression);N-terminal His6, cleaved (PreScission); copies: 1;1; label: none; tRNA cloverleaf
Sequence of ScADAT2 (TAD2);ScADAT3 (TAD3) WT (P47058 whole entry, chain 1 of 2): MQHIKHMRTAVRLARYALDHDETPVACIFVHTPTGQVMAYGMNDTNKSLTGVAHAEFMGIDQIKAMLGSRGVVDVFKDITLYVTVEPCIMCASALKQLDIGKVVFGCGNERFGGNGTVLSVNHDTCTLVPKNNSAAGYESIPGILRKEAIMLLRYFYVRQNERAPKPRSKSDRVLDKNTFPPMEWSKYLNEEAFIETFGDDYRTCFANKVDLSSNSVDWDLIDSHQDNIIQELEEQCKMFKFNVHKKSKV
Sequence of ScADAT2 (TAD2);ScADAT3 (TAD3) WT (Q9URQ3 whole entry, chain 2 of 2): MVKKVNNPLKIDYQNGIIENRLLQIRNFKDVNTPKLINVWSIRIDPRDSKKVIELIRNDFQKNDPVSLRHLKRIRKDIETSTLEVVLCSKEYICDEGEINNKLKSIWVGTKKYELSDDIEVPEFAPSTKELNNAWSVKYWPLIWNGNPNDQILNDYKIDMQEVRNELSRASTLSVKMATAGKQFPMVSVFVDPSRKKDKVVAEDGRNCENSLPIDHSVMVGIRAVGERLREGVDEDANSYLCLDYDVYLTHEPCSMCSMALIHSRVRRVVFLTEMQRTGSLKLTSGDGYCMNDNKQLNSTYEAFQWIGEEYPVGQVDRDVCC

[3] = biological target: ScADAT2 (TAD2);ScADAT3 R75A/K76A (Saccharomyces cerevisiae;Saccharomyces …, UniProt P47058;Q9URQ3 1-250;1-322, |R75A;K76A); test: as above; conditions: protein: recombinant;recombinant; tags: none (untagged in co-expression);N-terminal His6, cleaved (PreScission); copies: 1;1; label: none; tRNA cloverleaf
Sequence of ScADAT2 (TAD2);ScADAT3 R75A/K76A (P47058 whole entry, chain 1 of 2): as the sequence (P47058 whole entry, chain 1 of 2) above
Sequence of ScADAT2 (TAD2);ScADAT3 R75A/K76A (Q9URQ3 whole entry R75A/K76A, chain 2 of 2): as the sequence (Q9URQ3 whole entry, chain 2 of 2) above, with R75A, K76A counted along it

[4] = biological target: ScADAT2 (TAD2);ScADAT3 K50A (Saccharomyces cerevisiae;Saccharomyces …, UniProt P47058;Q9URQ3 1-250;1-322, |K50A); test: as above; conditions: protein: recombinant;recombinant; tags: none (untagged in co-expression);N-terminal His6, cleaved (PreScission); copies: 1;1; label: none; tRNA cloverleaf
Sequence of ScADAT2 (TAD2);ScADAT3 K50A (P47058 whole entry, chain 1 of 2): as the sequence (P47058 whole entry, chain 1 of 2) above
Sequence of ScADAT2 (TAD2);ScADAT3 K50A (Q9URQ3 whole entry K50A, chain 2 of 2): as the sequence (Q9URQ3 whole entry, chain 2 of 2) above, with K50A counted along it

[5] = biological target: ScADAT2 (TAD2);ScADAT3 Del30-148 (Saccharomyces cerevisiae;Saccharomyces …, UniProt P47058;Q9URQ3 1-250;1-322, |del30-148); test: as above; conditions: protein: recombinant;recombinant; tags: none (untagged in co-expression);N-terminal His6, cleaved (PreScission); copies: 1;1; label: none; tRNA cloverleaf
Sequence of ScADAT2 (TAD2);ScADAT3 Del30-148 (P47058 whole entry, stated change not applied, chain 1 of 2): as the sequence (P47058 whole entry, chain 1 of 2) above
Sequence of ScADAT2 (TAD2);ScADAT3 Del30-148 (Q9URQ3 other isoform, or with tags, fused parts or gaps |del30-148, chain 2 of 2): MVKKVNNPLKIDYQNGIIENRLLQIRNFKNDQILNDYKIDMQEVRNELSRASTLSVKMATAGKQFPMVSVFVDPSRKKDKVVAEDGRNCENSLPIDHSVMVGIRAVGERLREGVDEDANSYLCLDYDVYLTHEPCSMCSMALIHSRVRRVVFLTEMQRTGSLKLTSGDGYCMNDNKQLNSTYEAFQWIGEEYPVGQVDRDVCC

[6] = biological target: ScADAT2 (TAD2);ScADAT3 K72A/R73A (Saccharomyces cerevisiae;Saccharomyces …, UniProt P47058;Q9URQ3 1-250;1-322, |K72A;R73A); test: as above; conditions: protein: recombinant;recombinant; tags: none (untagged in co-expression);N-terminal His6, cleaved (PreScission); copies: 1;1; label: none; tRNA cloverleaf
Sequence of ScADAT2 (TAD2);ScADAT3 K72A/R73A (P47058 whole entry, chain 1 of 2): as the sequence (P47058 whole entry, chain 1 of 2) above
Sequence of ScADAT2 (TAD2);ScADAT3 K72A/R73A (Q9URQ3 whole entry K72A/R73A, chain 2 of 2): as the sequence (Q9URQ3 whole entry, chain 2 of 2) above, with K72A, R73A counted along it

Row | Molecule | in vitro deamination of tRNA^Ala by the heterodimer (30 nM enzyme), coupled to cleavage by EcEndoV, against WT [1] | further results
1 | ScADAT2-D124A/T125A/C126A/T127A (enzyme) | > 50 % activity | 
2 | ScADAT2/F57A (enzyme) | > 50 % activity | 
3 | ScADAT2/I89A (enzyme) | > 50 % activity | 
4 | ScADAT2/L49A (enzyme) | > 50 % activity | 
5 | ScADAT2/L119A/V121A (enzyme) | > 50 % activity | 
6 | ScADAT2/Q97A (enzyme) | > 50 % activity | 
7 | ScADAT2/S69A (enzyme) | > 50 % activity | 
8 | ScADAT2/S93A (enzyme) | > 50 % activity | 
9 | ScADAT2/V52A (enzyme) | > 50 % activity | 
10 | tRNAAla (structured_RNA, none (in vitro transcript)) RNA: GGGCGUGUGGCGUAGUCGGUAGCGCGCUCCCUUAGCAUGGGAGAGGUCUCCGGUUCGAUUCCGGACUCGUCCACCA |  | binding result [2]: binds; binding result [3]: no binding; binding result [4]: no binding; binding result [5]: no binding; binding result [6]: no binding
